# B1: Nuclear distribution protein nudE homolog 1 (Homo sapiens), Q9NXR1 (parent)
# chain: MEDSGKTFSSEEEEANYWKDLAMTYKQRAENTQEELREFQEGSREYEAELETQLQQIETRNRDLLSENNRLRMELETIKEKFEVQHSEGYRQISALEDDLAQTKAIKDQLQKYIRELEQANDDLERAKRATIMSLEDFEQRLNQAIERNAFLESELDEKENLLESVQRLKDEARDLRQELAVQQKQEKPRTPMPSSVEAERTDTAVQATGSVPSTPIAHRGPSSSLNTPGSFRRGLDDSTGGTPLTPAARISALNIVGDLLRKVGALESKLASCRNLVYDQSPNRTGGPASGRSSKNRDGGERRPSSTSVPLGDKGLDTSCRWLSKSTTRSSSSC
# partner: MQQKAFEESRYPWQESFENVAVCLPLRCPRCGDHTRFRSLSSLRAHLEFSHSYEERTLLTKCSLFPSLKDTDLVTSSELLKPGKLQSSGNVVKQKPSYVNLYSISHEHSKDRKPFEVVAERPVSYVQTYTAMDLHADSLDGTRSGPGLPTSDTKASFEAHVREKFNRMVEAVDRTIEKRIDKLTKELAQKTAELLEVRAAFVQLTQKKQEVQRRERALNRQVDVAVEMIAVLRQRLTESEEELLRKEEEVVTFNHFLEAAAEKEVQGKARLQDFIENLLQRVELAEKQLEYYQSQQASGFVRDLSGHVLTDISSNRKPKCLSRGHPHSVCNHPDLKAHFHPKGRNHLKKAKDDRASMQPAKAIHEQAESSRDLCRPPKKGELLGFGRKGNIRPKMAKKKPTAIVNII
# B2: Nuclear distribution protein nudE homolog 1 (Homo sapiens), Q9NXR1 (parent)
# chain: B1 chain
# Variants of: B1
# Conditions: with zn365_human ZNF365, Q70YC5
row,Variant,effect of a mutation on the interaction
1,T191E;T215E;T228E;T243E;T246E;S282E,decreasing interaction

# Variants of: B1
# Conditions: with zn365_human ZNF365, Q70YC5
# Remark: another data set of the same source
row,Variant,effect of a mutation on the interaction
1,T191E;T215E;T228E;T243E;T246E;S282E,decreasing interaction

# Variants of: B2
# Conditions: with cdk1_human CDK1, P06493
# Chain of cdk1_human CDK1, P06493 (P06493 whole entry, looked up): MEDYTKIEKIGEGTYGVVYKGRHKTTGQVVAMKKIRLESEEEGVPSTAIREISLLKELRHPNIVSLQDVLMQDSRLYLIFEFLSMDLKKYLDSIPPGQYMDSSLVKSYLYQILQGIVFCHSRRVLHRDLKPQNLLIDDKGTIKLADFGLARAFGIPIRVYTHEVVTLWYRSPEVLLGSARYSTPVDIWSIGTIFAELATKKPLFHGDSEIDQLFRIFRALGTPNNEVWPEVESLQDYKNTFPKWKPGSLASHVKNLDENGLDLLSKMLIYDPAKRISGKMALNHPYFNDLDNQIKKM
row,Variant,effect of a mutation on the interaction
1,T191V;T215V;T228V;T243V;T246V;S282V,decreasing interaction

# Source: IntAct's records for PubMed 16682949
